Results as given in patent US20190360025A1.
One block for each substance: values may come before it.

Experiments:
[1] = target: tumor necrosis factor alpha (TNF-α), R&D Systems 210-TA-005 (UniProt P01375); assay: t-PLA 1X probes, buffer; TNF-α 1.00E-09 M
[2] = target: tumor necrosis factor alpha (TNF-α), R&D Systems 210-TA-005 (UniProt P01375); assay: t-PLA 1X probes, human plasma; TNF-α 1.00E-12 M
[3] = target: tumor necrosis factor alpha (TNF-α), R&D Systems 210-TA-005 (UniProt P01375); assay: c-PLA, buffer; TNF-α 1.00E-08 M
[4] = target: tumor necrosis factor alpha (TNF-α), R&D Systems 210-TA-005 (UniProt P01375); assay: t-PLA 1X probes, human plasma; TNF-α 5.00E-07 M
[5] = target: tumor necrosis factor alpha (TNF-α), R&D Systems 210-TA-005 (UniProt P01375); assay: c-PLA 10X probes, buffer; TNF-α 1.00E-08 M
[6] = target: tumor necrosis factor alpha (TNF-α), R&D Systems 210-TA-005 (UniProt P01375); assay: c-PLA 10X probes, human plasma; TNF-α 5.00E-07 M
[7] = target: tumor necrosis factor alpha (TNF-α), R&D Systems 210-TA-005 (UniProt P01375); assay: SPR (Biacore T200), biotinylated antibody on CAP chip, 1:1 fit
[8] = target: tumor necrosis factor alpha (TNF-α), R&D Systems 210-TA-005 (UniProt P01375); assay: t-PLA 10X probes, buffer; TNF-α 1.00E-09 M
[9] = target: tumor necrosis factor alpha (TNF-α), R&D Systems 210-TA-005 (UniProt P01375); assay: t-PLA, buffer; TNF-α 1.00E-10 M
[10] = target: tumor necrosis factor alpha (TNF-α), R&D Systems 210-TA-005 (UniProt P01375); assay: c-PLA 10X probes, buffer; TNF-α 1.00E-11 M
[11] = target: tumor necrosis factor alpha (TNF-α), R&D Systems 210-TA-005 (UniProt P01375); assay: c-PLA 10X probes, human plasma; TNF-α 1.00E-11 M
[12] = target: tumor necrosis factor alpha (TNF-α), R&D Systems 210-TA-005 (UniProt P01375); assay: c-PLA 1X probes, buffer; TNF-α 1.00E-10 M
[13] = target: tumor necrosis factor alpha (TNF-α), R&D Systems 210-TA-005 (UniProt P01375); assay: c-PLA 1X probes, human plasma; TNF-α 1.00E-13 M
[14] = target: tumor necrosis factor alpha (TNF-α), R&D Systems 210-TA-005 (UniProt P01375); assay: c-PLA 10X probes, human plasma; TNF-α 1.00E-09 M
[15] = target: tumor necrosis factor alpha (TNF-α), R&D Systems 210-TA-005 (UniProt P01375); assay: t-PLA 1X probes, human plasma; TNF-α 1.00E-08 M
[16] = target: vascular endothelial growth factor (VEGF), R&D Systems 293-VE-010 (human) (UniProt P15692); assay: t-PLA, buffer; VEGF 1.00E-12 M
UniProt P15692, sequence (P15692 other isoform, or with tags, fused parts or gaps limits assumed): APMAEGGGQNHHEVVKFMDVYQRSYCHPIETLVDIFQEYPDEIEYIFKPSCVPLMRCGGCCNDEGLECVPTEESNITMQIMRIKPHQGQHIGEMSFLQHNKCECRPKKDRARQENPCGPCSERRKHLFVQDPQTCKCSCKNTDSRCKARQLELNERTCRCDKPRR

[17] = target: vascular endothelial growth factor (VEGF), R&D Systems 293-VE-010 (human) (UniProt P15692); assay: c-PLA with preamplification; VEGF 1.00E-08 M
[18] = target: vascular endothelial growth factor (VEGF), R&D Systems 293-VE-010 (human) (UniProt P15692); assay: t-PLA, human plasma; VEGF 1.00E-13 M
[19] = target: vascular endothelial growth factor (VEGF), R&D Systems 293-VE-010 (human) (UniProt P15692); assay: t-PLA, human plasma; VEGF 1.00E-12 M
[20] = target: vascular endothelial growth factor (VEGF), R&D Systems 293-VE-010 (human) (UniProt P15692); assay: c-PLA, chicken plasma; VEGF 1.00E-08 M
[21] = target: vascular endothelial growth factor (VEGF), R&D Systems 293-VE-010 (human) (UniProt P15692); assay: c-PLA with preamplification; VEGF 1.00E-13 M
[22] = target: vascular endothelial growth factor (VEGF), R&D Systems 293-VE-010 (human) (UniProt P15692); assay: SPR (Biacore T200), biotinylated antibody on CAP chip, 1:1 fit
[23] = target: vascular endothelial growth factor (VEGF), R&D Systems 293-VE-010 (human) (UniProt P15692); assay: t-PLA, human plasma; VEGF 1.00E-11 M
[24] = target: vascular endothelial growth factor (VEGF), R&D Systems 293-VE-010 (human) (UniProt P15692); assay: c-PLA, chicken plasma; VEGF 1.00E-10 M
[25] = target: vascular endothelial growth factor (VEGF), R&D Systems 293-VE-010 (human) (UniProt P15692); assay: c-PLA, chicken plasma; VEGF 1.00E-11 M
[26] = target: vascular endothelial growth factor (VEGF), R&D Systems 293-VE-010 (human) (UniProt P15692); assay: c-PLA with preamplification; VEGF 1.00E-14 M
[27] = target: vascular endothelial growth factor (VEGF), R&D Systems 293-VE-010 (human) (UniProt P15692); assay: c-PLA, buffer; VEGF 1.00E-08 M
[28] = target: vascular endothelial growth factor (VEGF), R&D Systems 293-VE-010 (human) (UniProt P15692); assay: c-PLA, chicken plasma; VEGF 1.00E-09 M

UniProt P01375, sequence (P01375 77-233 limits assumed): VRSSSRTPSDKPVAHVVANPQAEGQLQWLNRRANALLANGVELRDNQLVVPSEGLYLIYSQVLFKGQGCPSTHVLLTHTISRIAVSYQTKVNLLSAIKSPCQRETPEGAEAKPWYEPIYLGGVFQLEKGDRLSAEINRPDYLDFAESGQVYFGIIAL

Substance: affinity-purified polyclonal anti-TNF-α antibody (R&D Systems AF-210-NA)
- Counts [1]: 1.98e+07
- Counts [2]: 154000
- Counts [3]: 11600
- SBR [3]: 1030
- Counts [4]: 2.12e+08
- SBR [4]: 892
- Counts [5]: 359000
- SBR [5]: 1960
- Counts [6]: 495000
- SBR [6]: 230
- Kd [7]: 0.28 nM
- Counts [8]: 3.2e+08
- SBR [8]: 56
- SBR [9]: 15.9
- Counts [10]: 590
- Counts [11]: 2970
- SBR [11]: 1.4
- Counts [12]: 260
- Counts [13]: 83.7
- SBR [13]: 1.1
- Counts [14]: 45400
- SBR [14]: 21
- Counts [15]: 1.79e+07
- SBR [15]: 75

- Counts [16]: 3.69e+06
- SBR [16]: 11
- Counts [17]: 8.14e+07
- SBR [17]: 1370
- Counts [18]: 1.79e+06
- SBR [18]: 1.1
- Counts [19]: 2.06e+06
- SBR [19]: 1.3
- Counts [20]: 40800
- SBR [20]: 4420
- Counts [21]: 95500
- SBR [21]: 1.6
- Kd [22]: 0.0036 nM
- Counts [23]: 7.15e+06
- Counts [24]: 26800
- SBR [24]: 2900
- Counts [25]: 2160
- SBR [25]: 234
- Counts [26]: 90200
- SBR [26]: 1.5
- Counts [27]: 483000
- SBR [27]: 16300
- Counts [28]: 73600
- SBR [28]: 7980
Substance: affinity-purified polyclonal anti-VEGF antibody (R&D Systems AF-293-NA)
